Common to all, as to conditions: protein: ivt; label: 5' biotin; blunt
Data set [1] deals with T1, BmKRP (Bombyx mori, UniProt A0A8R1WHU4 1-518).
T1 sequence: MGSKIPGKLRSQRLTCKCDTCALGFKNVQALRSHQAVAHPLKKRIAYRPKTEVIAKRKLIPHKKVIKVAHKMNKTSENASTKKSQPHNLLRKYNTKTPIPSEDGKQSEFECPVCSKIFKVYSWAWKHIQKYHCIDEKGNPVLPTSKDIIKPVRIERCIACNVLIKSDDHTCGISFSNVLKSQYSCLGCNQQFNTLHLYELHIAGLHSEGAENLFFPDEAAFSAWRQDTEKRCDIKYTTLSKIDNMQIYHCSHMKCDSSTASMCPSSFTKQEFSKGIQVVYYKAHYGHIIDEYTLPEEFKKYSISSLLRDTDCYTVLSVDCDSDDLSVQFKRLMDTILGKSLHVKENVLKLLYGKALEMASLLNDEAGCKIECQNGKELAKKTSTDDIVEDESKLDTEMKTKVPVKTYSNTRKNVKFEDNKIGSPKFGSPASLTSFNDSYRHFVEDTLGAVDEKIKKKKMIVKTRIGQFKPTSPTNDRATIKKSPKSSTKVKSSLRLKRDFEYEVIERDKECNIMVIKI
Kind of data set: EMSA; EMSA: 1x binding buffer (LightShift kit), 2.5% glycerol, 0.05% NP-40, 50 mM KCl, 5 mM MgCl2, 4 mM EDTA, 1 ug poly dI-dC, 20 fmol probe, room temperature 20 min; pull-down: 10 mM HEPES pH 7.6, 100 mM K-glutamate, 80 mM KCl, 10 mM Mg acetate, 4 C. In general terms: Mobility shift assays separate free from complexed probe on a gel.

Data set [2] concerns the target T1, BmKRP. The data set is described as follows: EMSA; competed by 50-fold unlabeled probe; EMSA: 1x binding buffer (LightShift kit), 2.5% glycerol, 0.05% NP-40, 50 mM KCl, 5 mM MgCl2, 4 mM EDTA, 1 ug poly dI-dC, 20 fmol probe, room temperature 20 min; pull-down: 10 mM HEPES pH 7.6, 100 mM K-glutamate, 80 mM KCl, 10 mM Mg acetate, 4 C.
Data set [3] concerns the target T1, BmKRP. The data set is described as follows: EMSA; Discussion calls it weaker (citing Fig. 3f); EMSA: 1x binding buffer (LightShift kit), 2.5% glycerol, 0.05% NP-40, 50 mM KCl, 5 mM MgCl2, 4 mM EDTA, 1 ug poly dI-dC, 20 fmol probe, room temperature 20 min; pull-down: 10 mM HEPES pH 7.6, 100 mM K-glutamate, 80 mM KCl, 10 mM Mg acetate, 4 C.

B1: -248~-217 mutant probe 4 (central … region mutated) (dsDNA)
DNA 1: TTATTAACCACGAATCCCCATAAATAATCATT
DNA 2: AATGATTATTTATGGGGATTCGTGGTTAATAA
As to B1, the binding result with BmKRP [1] is on record as “binds”.

B2: BmKr-h1 20E CRE -248~-217 WT probe (dsDNA)
DNA 1: TTATTAAAACATCCGAAAACGCAATAATCATT
DNA 2: AATGATTATTGCGTTTTCGGATGTTTTAATAA
For the molecule B2, in the data set with BmKRP [2], the binding result was “binds”.

B3: -248~-217 mutant probe 6 (left flank mutated) (dsDNA)
DNA 1: GGCGGCCCACATCCGAAAACGCAATAATCATT
DNA 2: AATGATTATTGCGTTTTCGGATGTGGGCCGCC
For B3, in the data set with BmKRP [3], the binding result was “binds”.

B4: -248~-217 mutant probe 5 (both flanks mutated) (dsDNA)
DNA 1: GGCGGCCCACATCCGAAAACGACCGCCGACGG
DNA 2: CCGTCGGCGGTCGTTTTCGGATGTGGGCCGCC
In the case of B4, the binding result in the data set with BmKRP [1] is listed as “no binding”.

B5: -248~-217 mutant probe 7 (right flank mutated) (dsDNA)
DNA 1: TTATTAAAACATCCGAAAACGACCGCCGACGG
DNA 2: CCGTCGGCGGTCGTTTTCGGATGTTTTAATAA
In the case of B5, the binding result with BmKRP [3] is “binds”.

The values are drawn from paper PMC7905918, “20E-mediated regulation of BmKr-h1 by BmKRP promotes oocyte maturation”.
